Data set [1] addresses β-lactamase, Serine-70 substituted with cysteine (thiol-containing β-lactamase) (Escherichia coli, UniProt P62593, S68C). The settings on record: cited from earlier work; for kcat: relative to that of a wild type enzyme.
Data set [2] concerns the target T1, B. amyloliquefaciens subtilisin mutant Cys-24/Ala-64 (Ser-24→Cys/His-64→Ala) (Bacillus amyloliquefaciens, UniProt P00782, H171A/S131C).
T1 construct: The His-64→Ala mutation caused a severe reduction in secretion of mature subtilisin; made in house; host or cells: Bacillus subtilis BG2036, co-cultured with helper cells carrying active Ala-48→Glu subtilisin
T1 sequence (P00782 108-382 S131C/H171A): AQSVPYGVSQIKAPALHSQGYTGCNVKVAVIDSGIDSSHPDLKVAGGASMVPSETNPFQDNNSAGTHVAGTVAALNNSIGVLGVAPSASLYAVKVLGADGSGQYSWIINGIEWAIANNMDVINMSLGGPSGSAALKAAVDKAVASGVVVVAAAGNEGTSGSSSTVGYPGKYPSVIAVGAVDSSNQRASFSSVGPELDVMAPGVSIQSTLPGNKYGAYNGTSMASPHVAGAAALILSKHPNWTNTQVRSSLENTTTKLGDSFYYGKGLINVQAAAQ
Kind of data set: Kinetic analysis of hydrolysis of p-nitroanilide peptide substrates (release of ρ-nitroaniline, Eadie-Hofstee plot). Format: biochemical. The method, then:
(§1) The kinetic parameters for Cys-24 and Cys-24/Ala-64 were determined against the substrates N-succinyl-L-Phe-L-Ala-L-[X)-L-Phe-ρ-nitroanilide (abbreviated sFAXF-pNA), where X (P2 position) was Ala, Gln, or His (Table I). […] By comparison, the His-64→Ala mutation causes a drop of ∿10⁶ fold in kcat/Km against the Ala and Gln P2 substrates. Almost all of the decrease in catalytic efficiency is caused by a decreased kcat term (up to 10⁶ times), although smaller but significant increases appear in Km. […] Although the proportion of functional active sites in Cys-24/Ala-64 enzyme preparations could not be determined directly by such active site labeling, enzyme that was purified by additional native gel electrophoresis (Example 6) had identical kinetic parameters to Cys-24/Ala-64 described in Table V.

In data set [3] the target is T1, B. amyloliquefaciens subtilisin mutant Cys-24/Ala-64 (Ser-24→Cys/His-64→Ala). In words: Inhibition by the active site reagent PMSF. Format: biochemical. The settings on record: concentration not given. The method, then:
as §1
Several lines of evidence indicate that the activity we attribute to the Cys-24/Ala-64 enzyme is not the result of any other protease contamination. Firstly, the extreme substrate preference for His at the P2 position is unlike wild-type subtilisin or any known Bacillus protease. […] Finally, the kinetic values determined for Cys-24/Ala-64 that was additionally purified by native gel electrophoresis (Example 6) are essentially the same as these reported in Table V.

Substrate in data set [4]: C[C@H](NC(=O)[C@H](Cc1ccccc1)NC(=O)CCC(=O)O)C(=O)N[C@@H](CCC(N)=O)C(=O)N[C@@H](Cc1ccccc1)C(=O)Nc1ccc([N+](=O)[O-])cc1
In words: Kinetic analysis of hydrolysis of p-nitroanilide peptide substrates (release of ρ-nitroaniline, Eadie-Hofstee plot). As to conditions: other: 0.10 M Tris-HCl (pH 8.6), 10 mM DTT, 25±0.1°C, 25.0 °C. Format: biochemical, B. amyloliquefaciens. The method, then:
as §1

Substrate in data set [5]: C[C@H](NC(=O)[C@H](C)NC(=O)[C@H](Cc1ccccc1)NC(=O)CCC(=O)O)C(=O)N[C@@H](Cc1ccccc1)C(=O)Nc1ccc([N+](=O)[O-])cc1
Described as above. Format: biochemical, B. amyloliquefaciens. The settings on record: other: 0.10 M Tris-HCl (pH 8.6), 10 mM DTT, 25±0.1°C, 25.0 °C. The method, then:
as §1

Substrate in data set [6]: C[C@H](NC(=O)[C@H](Cc1ccccc1)NC(=O)CCC(=O)O)C(=O)N[C@@H](Cc1c[nH]cn1)C(=O)N[C@@H](Cc1ccccc1)C(=O)Nc1ccc([N+](=O)[O-])cc1
The data set is described as above. Format: biochemical, B. amyloliquefaciens. As to conditions: other: 0.10 M Tris-HCl (pH 8.6), 10 mM DTT, 25±0.1°C, 25.0 °C. The method, then: as §1

Consider 7 molecules from patent publication EP0308499B1, “SUBSTRATE ASSISTED CATALYSIS” (GENENCOR INTERNATIONAL, INC., priority 1987, dated 1988).

Numbered stars: 1 amine (or outer) side, 2 acyl side, 3 side chain; on linkers, the order of the positions; unused ones are H or OH. Peptide text beside a SMILES is read from it. * marks the point of attachment. pNA = O=[N+]([O-])c1ccc(N*)cc1; Suc = O=C(CCC(=O)[*:2])[*:1]

Turning to `O=C(Cc1cccs1)N[C@@H]1C(=O)N2C(C(=O)O)=C(/C=C/c3ccc([N+](=O)[O-])cc3[N+](=O)[O-])CS[C@H]12` [nitrocefin], the Km – broadly, the substrate concentration at which the rate is half of its maximum – in data set [1] (relative to that of the wild type) was “greater than 10 fold”.
On to `CC1(C)S[C@@H]2[C@H](NC(=O)Cc3ccccc3)C(=O)N2[C@H]1C(=O)O` [benzyl penicillin], for which, in data set [1], the kcat – broadly, the number of substrate molecules converted per active site and unit of time at saturation – is reported as 1-2%.
Turning to `C[C@H](NC(=O)[C@H](Cc1ccccc1)NC(=O)CCC(=O)O)C(=O)N[C@@H](Cc1c[nH]cn1)C(=O)N[C@@H](Cc1ccccc1)C(=O)Nc1ccc([N+](=O)[O-])cc1` [His, N-succinyl-L-Phe-L-Ala-L-X-L-Phe-ρ-nitroanilide] (Suc-FAHF-pNA), in data set [2] (kcat/Km compared with wild-type subtilisin), the “catalytic efficiency below wild-type” value is 5,000 fold. In addition, in data set [2] (pH 8.6, Table V data), the “kcat of the His P2 substrate larger than that of the Ala P2 substrate by a factor” value was 2,000 and the “kcat of the His P2 substrate larger than that of the Gln P2 substrate by a factor” value came out at 500.
As for `O=S(=O)(F)Cc1ccccc1` [PMSF, phenylmethylsulfonyl-fluoride], the “inhibition by PMSF” value in data set [3] is recorded as “completely resistant to inhibition”.
Regarding `CC1(C)S[C@@H]2[C@H](NC(=O)[C@H](N)c3ccccc3)C(=O)N2[C@H]1C(=O)O` [ampicillin], in data set [1], the kcat is 1-2%.

B1: B. amyloliquefaciens subtilisin, recombinant Cys-24 (Ser-24→Cys; kinetically essentially identical to wild-type) (Bacillus amyloliquefaciens; S131C) (protein)
chain: AQSVPYGVSQIKAPALHSQGYTGCNVKVAVIDSGIDSSHPDLKVAGGASMVPSETNPFQDNNSHGTHVAGTVAALNNSIGVLGVAPSASLYAVKVLGADGSGQYSWIINGIEWAIANNMDVINMSLGGPSGSAALKAAVDKAVASGVVVVAAAGNEGTSGSSSTVGYPGKYPSVIAVGAVDSSNQRASFSSVGPELDVMAPGVSIQSTLPGNKYGAYNGTSMASPHVAGAAALILSKHPNWTNTQVRSSLENTTTKLGDSFYYGKGLINVQAAAQ
notes: Maturation of the primary subtilisin gene product (preprosubtilisin) to subtilisin in B. substilis is believed to be mediated by autoproteolysis; made in house
Regarding B1, in data set [4], the Km is 39 µM, the kcat turned out to be 7.0 s⁻¹ and the kcat/Km is recorded as 1.8 x 10^5 s^-1M^-1. Moreover, in data set [5], the Km stood at 10 µM, the kcat worked out at 8.1 s⁻¹ and the kcat/Km is listed as 8.0 x 10^5 s^-1M^-1. In data set [6], the Km turned out to be 23 µM, the kcat worked out at 4.6 s⁻¹ and the kcat/Km was 2.0 x 10^5 s^-1M^-1.

B2: B. amyloliquefaciens subtilisin mutant Cys-24/Ala-64 (Ser-24→Cys/His-64→Ala) (Bacillus amyloliquefaciens; H171A/S131C) (protein)
chain: AQSVPYGVSQIKAPALHSQGYTGCNVKVAVIDSGIDSSHPDLKVAGGASMVPSETNPFQDNNSAGTHVAGTVAALNNSIGVLGVAPSASLYAVKVLGADGSGQYSWIINGIEWAIANNMDVINMSLGGPSGSAALKAAVDKAVASGVVVVAAAGNEGTSGSSSTVGYPGKYPSVIAVGAVDSSNQRASFSSVGPELDVMAPGVSIQSTLPGNKYGAYNGTSMASPHVAGAAALILSKHPNWTNTQVRSSLENTTTKLGDSFYYGKGLINVQAAAQ
With B2, in data set [4] (in the presence of PMSF), the Km amounted to 150 µM, the kcat worked out at 3e-05 s⁻¹ and the kcat/Km was 0.20 s^-1M^-1. Also, in data set [5] (in the presence of PMSF), the Km came out at 32 µM, the catalytic constant (kcat) was found to be 8.1e-06 s⁻¹ and the kcat/Km turned out to be 0.25 s^-1M^-1. In data set [6] (in the presence of PMSF), the Km came out at 380 µM, the kcat worked out at 0.016 s⁻¹ and the kcat/Km was 42 s^-1M^-1.
